Data on three proteins can be found in patent US20210318312.

Where a chain is given by its changes, count along the chain named. Numbers in names are those of the source.

The target in one series is T1, DLAT K259 Lipoyl peptide.
T1 chain: EIETDKATIGWW

A further series concerns the target T2, DLAT K259 Acetyl peptide.
T2 chain: EIETDKATIGW

The next series deals with T3, H3 K9 Acetyl peptide.
T3 chain: KQTARKSTGGWW

A further series addresses T4, H3 K9 Biotinyl peptide.
T4 chain: KQTARKSTGGWW

The target of another series is T5, H3 K9 Lipoyl peptide.
T5 chain: KQTARKSTGGWW

For series [1], the target named is T6, lipoyl-modified DLAT peptide of the LC-MS deacylation assay.
T6 chain: EIETDKATIGWW

The target of series [2] is T7, lipoyl-modified PDHX peptide.
T7 chain: EIETDKAVVTWW

Series [3] deals with purified porcine heart pyruvate dehydrogenase (Sigma-Aldrich, cat. #P7032).

B1: recombinant SIRT3 (Sigma, cat. #SRP0117-100UG) (protein)
chain: ISFSVGASSVVGSGGSSDKGKLSLQDVAELIRARACQRVVVMVGAGISTPSGIPDFRSPGSGLYSNLQQYDLPYPEAIFELPFFFHNPKPFFTLAKELYPGNYKPNVTHYFLRLLHDKGLLLRLYTQNIDGLERVSGIPASKLVEAHGTFASATCTVCQRPFPGEDIRADVMADRVPRCPVCTGVVKPDIVFFGEPLPQRFLLHVVDFPMADLLLILGTSLEVEPFASLTEAVRSSVPRLLINRDLVGPLAWHPRSRDVAQLGDVVHGVESLVELLGWTEEMRDLVQRETGKLDGPDK
With B1, in the series with DLAT K259 Lipoyl peptide, the “catalytic efficiency, fold lower than for DLAT acetyl” value was “this efficiency was 13-fold lower than for DLAT acetyl” and the “in vitro deacylation kinetics” value is on record as “SIRT3 showed some enzymatic activity towards DLAT lipoyl”.

B2: recombinant SIRT4 (N-terminally truncated human Sirt4, 33-314 of SEQ ID NO: 2) (protein)
chain: VPASPPLDPEKVKELQRFITLSKRLLVMTGAGISTESGIPDYRSEKVGLYARTDRRPIQHGDFVRSAPIRQRYWARNFVGWPQFSSHQPNPAHWALSTWEKLGKLYWLVTQNVDALHTKAGSRRLTELHGCMDRVLCLDCGEQTPRGVLQERFQVLNPTWSAEAHGLAPDGDVFLSEEQVRSFQVPTCVQCGGHLKPDVVFFGDTVNPDKVDFVHKRVKEADSLLVVGSSLQVYSGYRFILTAWEKKLPIAILNIGPTRSDDLACLKLNSRCGELLPLIDPC
As usually defined, the Km is the substrate concentration at which the rate is half of its maximum. As a reminder, the kcat is the number of substrate molecules converted per active site and unit of time at saturation. Take B2: in the series with DLAT K259 Acetyl peptide, the Michaelis-Menten constant (Km) result is listed as “ND* (>2500)”; the “catalytic efficiency, fold lower than DLAT lipoyl” value is “this efficiency was still 38-fold lower than DLAT lipoyl”; the kcat came out at 0.0011 s⁻¹; the kcat/Km worked out at 0.2 s^-1M^-1. Besides, in the series with DLAT K259 Lipoyl peptide, the Km was found to be 239 µM; the “catalytic efficiency, fold against H3K9 lipoyl” value is recorded as 3.5-fold increased efficiency compared to H3K9 lipoyl; the “catalytic efficiency, fold against H3K9 lipoyl (another experiment)” value was 3.3-fold increase in efficiency compared to H3K9 lipoyl; the “catalytic efficiency, fold against deacetylation of MCD” value is recorded as “˜1270-fold more efficient at hydrolyzing the DLAT lipoamide”. Further, in the series with DLAT K259 Lipoyl peptide, the kcat was determined as 0.0016 s⁻¹ and the kcat/Km is 7.65 s^-1M^-1. Besides, in the series with H3 K9 Acetyl peptide, the Michaelis-Menten constant (Km) entry is listed as “ND* (>2500)”; the “LC-MS-based deacylation assay, hydrolysis of the acyl-lysine modification” value is listed as “SIRT4 was able to hydrolyze all three modifications”; the kcat/Km was found to be 0.083 s^-1M^-1; the “relative amount of unmodified product generated using 5 µM SIRT4” value (“relative amount” below) is 0.3% (acetyl-SEQ ID NO: 3). Besides, in the series with H3 K9 Biotinyl peptide, the Km was 719 µM; the “LC-MS-based deacylation assay, hydrolysis of the acyl-lysine modification” value is given as “SIRT4 was able to hydrolyze all three modifications”; the “catalytic efficiency, fold (another experiment)” value is given as “biotinyl (9-fold)”; the “catalytic efficiency, fold against acetylated H3K9” value is “biotinyl (SEQ ID NO: 4) (11-fold)”. In addition, in the series with H3 K9 Biotinyl peptide, the kcat was 0.0005 s⁻¹, the kcat/Km worked out at 0.74 s^-1M^-1 and the “relative amount” value is given as 3% (biotinyl-SEQ ID NO: 4). In the series with H3 K9 Lipoyl peptide, the Km was 814 µM; the “LC-MS-based deacylation assay, hydrolysis of the acyl-lysine modification” value was “SIRT4 was able to hydrolyze all three modifications”; the “catalytic efficiency, fold (another experiment)” value is reported as “lipoyl (28-fold)”; the “catalytic efficiency, fold against acetylated H3K9” value is “lipoyl (SEQ ID NO: 3 (30-fold)”. Further, in the series with H3 K9 Lipoyl peptide, the kcat worked out at 0.0019 s⁻¹, the kcat/Km was 2.3 s^-1M^-1 and the “relative amount” value is 11% (lipoyl-SEQ ID NO: 3). Also, in the series with MCD K471 Acetyl peptide, the Km result is recorded as “ND (>2500)” and the kcat/Km is 0.0064 s^-1M^-1. For the same protein, in series [1], the “proportion of unmodified peptide generated following reaction” value is on record as “increased to 33% for DLAT (SEQ ID NO: 11)”. For the same protein, the “proportion of unmodified peptide generated following reaction” value in [2] is 42% for PDHX (SEQ ID NO: 13). Also, the “PDH activity, immuno-capture colorimetric assay” value in series [3] was “only active SIRT4 was able to attenuate PDH activity”.

B3: recombinant SIRT4 H161Y catalytic mutant (protein)
chain: B2 chain with H129Y
As to B3, the LC-MS-based deacylation assay result with H3 K9 Acetyl peptide, with H3 K9 Biotinyl peptide and with H3 K9 Lipoyl peptide was “observed no significant activity for any of these substrates” each time. The “PDH activity, immuno-capture colorimetric assay” value in series [3] is listed as “only active SIRT4 was able to attenuate PDH activity”.
